Assay results reported in paper doi:10.64898/2025.12.11.693838 (bioRxiv, 2025).

Target: the molecule itself
Assay: crystal structure

B1: Staphylococcal atypical 2-Cys peroxiredoxin / thiol peroxidase, wild type (WT-SaTpx) (enzyme, UniProt Q2FXL3 1-164, looked up)
chain: MTEITFKGGPIHLKGQQINEGDFAPDFTVLDNDLNQVTLADYAGKKKLISVVPSIDTGVCDQQTRKFNSDASKEEGIVLTISADLPFAQKRWCASAGLDNVITLSDHRDLSFGENYGVVMEELRLLARAVFVLDADNKVVYKEIVSEGTDFPDFDAALAAYKNI
With B1 the “stoichiometry N” value was 2.

B2: N-terminal β-flap deletion mutant of SaTpx (NΔ15-SaTpx) (domain or fragment, UniProt Q2FXL3 16-164, looked up)
chain: QQINEGDFAPDFTVLDNDLNQVTLADYAGKKKLISVVPSIDTGVCDQQTRKFNSDASKEEGIVLTISADLPFAQKRWCASAGLDNVITLSDHRDLSFGENYGVVMEELRLLARAVFVLDADNKVVYKEIVSEGTDFPDFDAALAAYKNI
B2 was tested, and the “stoichiometry N” value was 2.
